The chains are these.
B1: Compound 4 (peptide)
peptide: Palmitoyl-LAYFRRLHSTR-NH2
SMILES: CCCCCCCCCCCCCCCC(=O)N[C@@H](CC(C)C)C(=O)N[C@@H](C)C(=O)N[C@@H](Cc1ccc(O)cc1)C(=O)N[C@@H](Cc1ccccc1)C(=O)N[C@@H](CCCNC(=N)N)C(=O)N[C@@H](CCCNC(=N)N)C(=O)N[C@@H](CC(C)C)C(=O)N[C@@H](Cc1c[nH]cn1)C(=O)N[C@@H](CO)C(=O)N[C@H](C(=O)N[C@@H](CCCNC(=N)N)C(N)=O)[C@@H](C)O
B2: Compound 72 (peptide)
peptide: Palmitoyl-SGRVLATKLRET-NH2
SMILES: CCCCCCCCCCCCCCCC(=O)N[C@@H](CO)C(=O)NCC(=O)N[C@@H](CCCNC(=N)N)C(=O)N[C@H](C(=O)N[C@@H](CC(C)C)C(=O)N[C@@H](C)C(=O)N[C@H](C(=O)N[C@@H](CCCCN)C(=O)N[C@@H](CC(C)C)C(=O)N[C@@H](CCCNC(=N)N)C(=O)N[C@@H](CCC(=O)O)C(=O)N[C@H](C(N)=O)[C@@H](C)O)[C@@H](C)O)C(C)C
B3: Compound 75 (peptide)
peptide: Palmitoyl-RVLATKLRETNAGR-NH2
SMILES: CCCCCCCCCCCCCCCC(=O)N[C@@H](CCCNC(=N)N)C(=O)N[C@H](C(=O)N[C@@H](CC(C)C)C(=O)N[C@@H](C)C(=O)N[C@H](C(=O)N[C@@H](CCCCN)C(=O)N[C@@H](CC(C)C)C(=O)N[C@@H](CCCNC(=N)N)C(=O)N[C@@H](CCC(=O)O)C(=O)N[C@H](C(=O)N[C@@H](CC(N)=O)C(=O)N[C@@H](C)C(=O)NCC(=O)N[C@@H](CCCNC(=N)N)C(N)=O)[C@@H](C)O)[C@@H](C)O)C(C)C
B4: Compound 73 (peptide)
peptide: Palmitoyl-SGRVLATKLRETNA-NH2
SMILES: CCCCCCCCCCCCCCCC(=O)N[C@@H](CO)C(=O)NCC(=O)N[C@@H](CCCNC(=N)N)C(=O)N[C@H](C(=O)N[C@@H](CC(C)C)C(=O)N[C@@H](C)C(=O)N[C@H](C(=O)N[C@@H](CCCCN)C(=O)N[C@@H](CC(C)C)C(=O)N[C@@H](CCCNC(=N)N)C(=O)N[C@@H](CCC(=O)O)C(=O)N[C@H](C(=O)N[C@@H](CC(N)=O)C(=O)N[C@@H](C)C(N)=O)[C@@H](C)O)[C@@H](C)O)C(C)C
B5: Compound 15 (peptide)
peptide: Palmitoyl-RRLHSTRNYIHM-NH2
SMILES: CCCCCCCCCCCCCCCC(=O)N[C@@H](CCCNC(=N)N)C(=O)N[C@@H](CCCNC(=N)N)C(=O)N[C@@H](CC(C)C)C(=O)N[C@@H](Cc1c[nH]cn1)C(=O)N[C@@H](CO)C(=O)N[C@H](C(=O)N[C@@H](CCCNC(=N)N)C(=O)N[C@@H](CC(N)=O)C(=O)N[C@@H](Cc1ccc(O)cc1)C(=O)N[C@H](C(=O)N[C@@H](Cc1c[nH]cn1)C(=O)N[C@@H](CCSC)C(N)=O)[C@@H](C)CC)[C@@H](C)O
B6: Compound 74 (peptide)
peptide: Palmitoyl-SGRVLATKLRETNAGR-NH2
SMILES: CCCCCCCCCCCCCCCC(=O)N[C@@H](CO)C(=O)NCC(=O)N[C@@H](CCCNC(=N)N)C(=O)N[C@H](C(=O)N[C@@H](CC(C)C)C(=O)N[C@@H](C)C(=O)N[C@H](C(=O)N[C@@H](CCCCN)C(=O)N[C@@H](CC(C)C)C(=O)N[C@@H](CCCNC(=N)N)C(=O)N[C@@H](CCC(=O)O)C(=O)N[C@H](C(=O)N[C@@H](CC(N)=O)C(=O)N[C@@H](C)C(=O)NCC(=O)N[C@@H](CCCNC(=N)N)C(N)=O)[C@@H](C)O)[C@@H](C)O)C(C)C

* marks the point of attachment. Palmitoyl = CCCCCCCCCCCCCCCC(=O)*

The target in this experiment is PTHR1 receptor.
Chain of PTHR1 receptor (P25961 whole entry): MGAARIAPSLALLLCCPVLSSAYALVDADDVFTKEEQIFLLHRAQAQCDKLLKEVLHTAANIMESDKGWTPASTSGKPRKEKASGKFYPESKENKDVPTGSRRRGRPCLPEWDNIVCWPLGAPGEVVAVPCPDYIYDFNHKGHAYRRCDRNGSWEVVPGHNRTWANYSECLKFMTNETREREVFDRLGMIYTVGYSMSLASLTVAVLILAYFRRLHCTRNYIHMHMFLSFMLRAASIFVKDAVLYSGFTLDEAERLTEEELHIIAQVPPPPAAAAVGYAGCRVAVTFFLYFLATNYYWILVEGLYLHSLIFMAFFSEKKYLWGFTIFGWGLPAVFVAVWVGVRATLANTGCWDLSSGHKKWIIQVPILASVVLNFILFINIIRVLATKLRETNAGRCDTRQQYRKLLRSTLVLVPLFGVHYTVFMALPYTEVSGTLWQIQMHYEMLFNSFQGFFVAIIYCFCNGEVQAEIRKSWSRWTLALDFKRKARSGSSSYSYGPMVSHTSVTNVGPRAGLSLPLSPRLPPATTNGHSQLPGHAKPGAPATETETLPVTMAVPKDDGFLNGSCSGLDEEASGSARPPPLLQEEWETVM
Take B1: the Fold Shift of EC50 came to 0.9 fold and the Inhibition of Maximal Response was -74.2%.
For B2, in that order: 0.7 fold and 22.3%.
The like results for B3 were, in that order, 1.1 fold and 12.6%.
Take B4: the Fold Shift of EC50 turned out to be 0.8 fold and the Inhibition of Maximal Response was found to be 32.3%.
The like results for B5 were, in that order, 1.7 fold and 1.5%.
The like results for B6 were, in that order, 1.9 fold and 22.2%.

(Values after patent US20110294738A1, “PTHR1 RECEPTOR COMPOUNDS” (priority 2008, published 2011).)
